Test results reported in patent US20210047402A1 (TENEOBIO, published 2021).

B1: anti-CD22 heavy chain-only antibody Clone ID 335206 (antibody, V domains shown)
VH: QLQLQESGPGLVKPSETLSLTCTVSGDSISSGDYYWGWIRQPPGKGLEWIGHIYYSGATYYNPSLKNRVTISVDTSKNQFSLKLSSVTAADTAVYYCTREDSSNWRSRGQGTLVTVSS
notes: Heavy chain-only antibody (UniAb), no light chain
B2: anti-CD22 heavy chain-only antibody Clone ID 335160 (antibody, V domains shown)
VH: QLQLQESGPGLVKPSETLSLTCTVSGDSISSGDYYWGWIRQPPGKGLEWIGSIYYSGATYYNPSLKNRVTISVDTSKNQFSLKLSSVTAADTAVYYCTRDDSSNWRSRGQGTLVTVSS
notes: as for B1
B3: anti-CD22 heavy chain-only antibody Clone ID 335170 (antibody, V domains shown)
VH: QLQLQESGPGLVKPSETLSLTCTVSGDSISSGDYYWGWIRQPPGKGLEWIGHIYYSGATYYNPSLKNRVTISVDTSRNQFSLKLSSVTAADTAVYYCTRDDSSNWRSRGQGTLVTVSS
notes: as for B1
B4: anti-CD22 heavy chain-only antibody Clone ID 335151 (antibody, V domains shown)
VH: QLQLQESGPGLVKPSETLSLTCTVSGDSISSGDYYWGWIRQPPGKGLEWIGHIYYSGATYYNPSLKNRVTISVDTSRNQFSLNLSSVTAADTAVYYCTRDDSSNWRSRGQGTLVTVSS
notes: as for B1
B5: anti-CD22 heavy chain-only antibody Clone ID 335166 (antibody, V domains shown)
VH: QLQLQESGPGLVKPSETLSLTCTVSGGSISSSSYYWGWIRQPPGKGLEWIGSIYYSGSTYYNPSLKNRVTISVDTSRNQFSLNLSSVTAADTAVYYCTRDDSSNWRSRGQGTLVTVSS
notes: as for B1
B6: anti-CD22 heavy chain-only antibody Clone ID 335171 (antibody, V domains shown)
VH: QLQLQESGPGLVKPSETLSLTCTVSGGSISSSSYYWGWIRQPPGKGLEWIGSIYYSGATYYNPSLKNRVTISVDTSRNQFSLNLSSVTAADTAVYYCTRDDSSNWRSRGQGTLVTVSS
notes: as for B1
B7: anti-CD22 heavy chain-only antibody Clone ID 324508 (antibody, V domains shown)
VH: QLQLQESGPGLVKPSETLSLTCTVSGGSISSGDYYWGWIRQPPGKGLEWIGHIYYSGATYYNPSLENRVTISVDTSKNQFSLKLSSVTAADTAVYYCTRDDSSNWRSRGQGTLVTVSS
notes: as for B1
B8: anti-CD22 heavy chain-only antibody Clone ID 335158 (antibody, V domains shown)
VH: QLQLQESGPGLVKPSETLSLTCTVSGGSISSGDYYWGWIRQPPGKGLEWIGHIYYSGATYYNPSLKNRVTISVDTSRNQFSLKLSSVTAADTAVYYCTRDDSSNWRSRGQGTLVTVSS
notes: as for B1
B9: anti-CD22 heavy chain-only antibody Clone ID 335154 (antibody, V domains shown)
VH: QLQLQESGPGLVKPSETLSLTCTVSGDSISSGDYYWGWIRQPPGKGLEWIGHIYYSGVTYYNPSLKNRVTISVDTSKNQFSLKLSSVTAADTAVYYCTRDDSSNWRSRGQGTLVTVSS
notes: as for B1
B10: anti-CD22 heavy chain-only antibody Clone ID 335150 (antibody, V domains shown)
VH: QLQLQESGPGLVKPSETLSLTCTVSGDSISSGDYYWGWIRQSPEKGLEWIGHIYYSGVTYYNPSLKNRVTISVDTSKNQFSLKLSSVTAADTAVYYCKRDDSSNWRSRGQGTLVTVSS
notes: as for B1
B11: anti-CD22 heavy chain-only antibody Clone ID 335162 (antibody, V domains shown)
VH: QLQLQESGPGLVKPSETLSLTCTVSGGSIISSSYYWGWIRQPPGKGLEWIGSIYYSGSAYYHPSLKSRVTISIDTSKNQFSLKLSSVTAADTAVYYCARDDSSNWRSRGQGTLVTVSS
notes: as for B1
B12: anti-CD22 heavy chain-only antibody Clone ID 335159 (antibody, V domains shown)
VH: QLQLQESGPGLVKPSETLSLTCTVSGGSISSSSYYWGWIRQPPGKGLEWIGHIYYSGVTYYNPSLKNRVTISVDTSKNQFSLKLSSVTAADTAAYYCTRDDSSNWRSRGQGTLVTVSS
notes: as for B1
B13: anti-CD22 heavy chain-only antibody Clone ID 335161 (antibody, V domains shown)
VH: QLQLQESGPGLVKPSETLSLTCTVSGDSISSGDYYWGWIRQPPGKGLEWIGHIYYSGATYYNPSLENRVTISVDTSKNQFSLKLSSVTAADTAVYYCTRDDSSNWRSRGQGTLVTVSS
notes: as for B1

Molecular target: T1, human CD22 (human, UniProt P20273 20-687, limits assumed)
T1 construct: also called SIGLEC-2; human CD22 protein
T1 sequence (looked up): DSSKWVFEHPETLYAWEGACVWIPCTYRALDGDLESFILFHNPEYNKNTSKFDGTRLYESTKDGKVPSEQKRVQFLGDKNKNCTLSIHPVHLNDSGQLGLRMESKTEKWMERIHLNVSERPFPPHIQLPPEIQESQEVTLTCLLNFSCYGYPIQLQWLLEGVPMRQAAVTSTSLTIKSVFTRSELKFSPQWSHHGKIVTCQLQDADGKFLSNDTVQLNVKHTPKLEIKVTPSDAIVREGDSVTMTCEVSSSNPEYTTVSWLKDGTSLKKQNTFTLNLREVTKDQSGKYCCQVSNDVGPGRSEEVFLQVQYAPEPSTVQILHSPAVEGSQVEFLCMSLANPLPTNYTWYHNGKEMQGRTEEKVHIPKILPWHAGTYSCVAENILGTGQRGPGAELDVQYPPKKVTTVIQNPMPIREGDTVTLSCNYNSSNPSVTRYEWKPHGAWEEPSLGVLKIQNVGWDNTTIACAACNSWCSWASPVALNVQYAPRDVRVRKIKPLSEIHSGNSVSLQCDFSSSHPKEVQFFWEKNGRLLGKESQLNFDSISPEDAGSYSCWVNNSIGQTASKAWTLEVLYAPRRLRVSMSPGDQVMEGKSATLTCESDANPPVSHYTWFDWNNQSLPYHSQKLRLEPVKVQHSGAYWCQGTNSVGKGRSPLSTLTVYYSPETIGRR
Assay: ELISA protein and cell-binding assays

Binding result, binds:
B1, B2, B3, B4, B5, B6, B7, B8, B9, B10, B11, B12, B13
